# Reference: US20200377596A1 (AMPHIVENA THERAPEUTICS, published 2020)
# Biological target: CD33 (UniProt P20138 18-364, limits assumed)
# Assay: cell-based or functional assay
# CD33, sequence (P20138 18-364 limits assumed): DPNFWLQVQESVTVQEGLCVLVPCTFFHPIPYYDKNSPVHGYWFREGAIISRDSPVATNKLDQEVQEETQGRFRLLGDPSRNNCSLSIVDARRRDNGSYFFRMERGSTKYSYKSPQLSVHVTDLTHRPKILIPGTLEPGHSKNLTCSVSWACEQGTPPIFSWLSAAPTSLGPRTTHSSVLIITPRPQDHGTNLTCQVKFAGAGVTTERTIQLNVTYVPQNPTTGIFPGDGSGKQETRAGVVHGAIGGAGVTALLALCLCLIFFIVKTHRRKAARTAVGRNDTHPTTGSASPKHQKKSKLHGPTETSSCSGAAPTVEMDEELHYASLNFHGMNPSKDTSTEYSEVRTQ
binder,measurement,value
AMV564 (bispecific antibody) DIQMTQSPSSLSASVGDRVTITCRSSTGAVTTSNYANWVQQKPGKAPKALIGGTNKRAPGVPSRFSGSLIGDKATLTISSLQPEDFATYYCALWYSNLWVFGQGTKVEIKGGSGGSQVQLVQSGAEVKKPGASVKVSCKASGYTFTSYDINWVRQAPGQGLEWMGWMNPNSGNTGFAQKFQGRVTMTRDTSTSTVYMELSSLRSEDTAVYYCARDRANTDYSLGMDVWGQGTLVTVSSGGSGQSVLTQPPSASGTPGQRVTISCSGSRSNIGSNTVNWYQQLPGTAPKLLIYGNNQRPSGVPDRFSGSKSGTSASLAISGLQSEDEADYYCATWDDSLIGWVFGGGTKLTVLGGSGGSEVQLVESGGGLVQPGGSLRLSCAASGFTFSTYAMNWVRQAPGKGLEWVGRIRSKYNNYATYYADSVKDRFTISRDDSKNSLYLQMNSLKTEDTAVYYCARHGNFGNSYVSYFAYWGQGTLVTVSS,proliferation of CD4+ and CD8+ T cells,> 2 fold
